Starred links: 1 amine or outer side, 2 acyl side, 3 side chain; linkers in the order of their positions; H or OH if unused. Positions of bridges follow the written chain, without caps; N, C: chain ends. Non-standard residues stand in square brackets, D forms with d. Primed or numbered codes have the meaning given here. ReN = (R)-5-(((allyloxy)carbonyl)(methyl)amino)-2-amino-2-methylpentanoic acid, stapling residue, C=CCOC(=O)N(C)CCC[C@@](C)(N[*:1])C(=O)[*:2]; Az″ = 1-((allyloxy)carbonyl)-3-aminoazetidine-3-carboxylic acid (staple end via allyl carbamate), C=CCOC(=O)N1CC(N[*:1])(C(=O)[*:2])C1; PyrS(3) = (S)-1-((allyloxy)carbonyl)-3-aminopyrrolidine-3-carboxylic acid, stapling residue, C=CCOC(=O)N1CC[C@@](N[*:1])(C(=O)[*:2])C1; PyrS″ = (S)-1-((allyloxy)carbonyl)-3-aminopyrrolidine-3-carboxylic acid (stapling residue), C=CCOC(=O)N1CC[C@@](N[*:1])(C(=O)[*:2])C1; SeN = (S)-5-(((allyloxy)carbonyl)(methyl)amino)-2-amino-2-methylpentanoic acid, C=CCOC(=O)N(C)CCC[C@](C)(N[*:1])C(=O)[*:2]; RdN = (R)-4-(((allyloxy)carbonyl)(methyl)amino)-2-amino-2-methylbutanoic acid, C=CCOC(=O)N(C)CC[C@@](C)(N[*:1])C(=O)[*:2]; SdN = (S)-4-(((allyloxy)carbonyl)(methyl)amino)-2-amino-2-methylbutanoic acid, C=CCOC(=O)N(C)CC[C@](C)(N[*:1])C(=O)[*:2]; SgN = (S)-3-(((allyloxy)carbonyl)(methyl)amino)-2-amino-2-methylpropanoic acid, C=CCOC(=O)N(C)C[C@](C)(N[*:1])C(=O)[*:2]; PyrS = (S)-1-((allyloxy)carbonyl)-3-aminopyrrolidine-3-carboxylic acid, C=CCOC(=O)N1CC[C@@](N[*:1])(C(=O)[*:2])C1; Az(3) = 1-((allyloxy)carbonyl)-3-aminoazetidine-3-carboxylic acid, C=CCOC(=O)N1CC(N[*:1])(C(=O)[*:2])C1; R7″ = (R)-2-amino-2-methylnon-8-enoic acid (stapling residue), C=CCCCCC[C@@](C)(N[*:1])C(=O)[*:2]; R7 = (R)-2-amino-2-methylnon-8-enoic acid, C=CCCCCC[C@@](C)(N[*:1])C(=O)[*:2]; R6 = (R)-2-amino-2-methyloct-7-enoic acid, C=CCCCC[C@@](C)(N[*:1])C(=O)[*:2]; R4 = (R)-2-amino-2-methylhex-5-enoic acid, C=CCC[C@@](C)(N[*:1])C(=O)[*:2]; Phe(4-COOH) = N[C@@H](Cc1ccc(C(=O)O)cc1)C(=O)O; S7 = C[C@@](CCCCCC=[*:3])(N[*:1])C(=O)[*:2]; Bip = N[C@@H](Cc1ccc(-c2ccccc2)cc1)C(=O)O; 3Pal = N[C@@H](Cc1cccnc1)C(=O)O; R8 = C=CCCCCCC[C@@](C)(N)C(=O)O; Aad = N[C@@H](CCCC(=O)O)C(=O)O; Cha = N[C@@H](CC1CCCCC1)C(=O)O; S8 = C=CCCCCCC[C@](C)(N)C(=O)O; R5 = C=CCCC[C@@](C)(N)C(=O)O; hLeu = CC(C)CC[C@H](N)C(=O)O; S5 = C=CCCC[C@](C)(N)C(=O)O; Nle = CCCC[C@H](N)C(=O)O
B1: I-4 (peptide)
peptide: Ac-FDA[R8]DEAAFV[PyrS″]FWQ-NH2
modifications: staple 4-11; not fully specified; printed as Ac-Phe-Asp-Ala-R8-Asp-Glu-Ala-Ala-Phe-Val-PyrS-Phe-Trp-Gln-NH2
notes: Stapled peptide composition
B2: I-19 (peptide)
peptide: Ac-FDA[R8]DDADFV[PyrS]FWQ-NH2
modifications: staple 4-11; not fully specified; printed as Ac-Phe-Asp-Ala-R8-Asp-Asp-Ala-Asp-Phe-Val-PyrS-Phe-Trp-Gln-NH2
notes: Stapled peptide composition
B3: I-20 (peptide)
peptide: Ac-FDA[R8]DDADFV[PyrS]FWQ-NH2
modifications: staple 4-11; not fully specified; printed as Ac-Phe-Asp-Ala-R8-Asp-Asp-Ala-Asp-Phe-Val-PyrS-Phe-Trp-Gln-NH2
notes: Stapled peptide composition
B4: I-21 (peptide)
peptide: Ac-FDA[R8]DDAEFV[PyrS]FWQ-NH2
modifications: staple 4-11; not fully specified; printed as Ac-Phe-Asp-Ala-R8-Asp-Asp-Ala-Glu-Phe-Val-PyrS-Phe-Trp-Gln-NH2
notes: Stapled peptide composition
B5: I-11 (peptide)
peptide: Ac-FDA[R8]D[Bip]AAFV[PyrS″]FWQ-NH2
modifications: staple 4-11; not fully specified; printed as Ac-Phe-Asp-Ala-R8-Asp-Bip-Ala-Ala-Phe-Val-PyrS-Phe-Trp-Gln-NH2
notes: Stapled peptide composition
B6: I-14 (peptide)
peptide: Ac-FDA[R8]D[Nle]AAFV[PyrS]FWQ-NH2
modifications: staple 4-11; not fully specified; printed as Ac-Phe-Asp-Ala-R8-Asp-nLeu-Ala-Ala-Phe-Val-PyrS-Phe-Trp-Gln-NH2
notes: Stapled peptide composition
B7: I-15 (peptide)
peptide: Ac-FDA[R8]D[Cha]AAFV[PyrS]FWQ-NH2
modifications: staple 4-11; not fully specified; printed as Ac-Phe-Asp-Ala-R8-Asp-Cha-Ala-Ala-Phe-Val-PyrS-Phe-Trp-Gln-NH2
notes: Stapled peptide composition
B8: I-16 (peptide)
peptide: Ac-FDA[R8]D[Cha]AAFV[PyrS]FWQ-NH2
modifications: staple 4-11; not fully specified; printed as Ac-Phe-Asp-Ala-R8-Asp-Cha-Ala-Ala-Phe-Val-PyrS-Phe-Trp-Gln-NH2
notes: Stapled peptide composition
B9: I-18 (peptide)
peptide: Ac-FDA[R8]D[hLeu]AAFV[PyrS]FWQ-NH2
modifications: staple 4-11; not fully specified; printed as Ac-Phe-Asp-Ala-R8-Asp-hLeu-Ala-Ala-Phe-Val-PyrS-Phe-Trp-Gln-NH2
notes: Stapled peptide composition
B10: I-24 (peptide)
peptide: Ac-FDA[R8]DDA[Aad]FV[PyrS]FWQ-NH2
modifications: staple 4-11; not fully specified; printed as Ac-Phe-Asp-Ala-R8-Asp-Asp-Ala-Aad-Phe-Val-PyrS-Phe-Trp-Gln-NH2
notes: Stapled peptide composition
B11: I-28 (peptide)
peptide: FDAXDDAAFVXFWQ
modifications: not fully specified; Ac-Phe-Asp-Ala-ReN-Asp-Asp-Ala-Ala-Phe-Val-S6-Phe-Trp-Gln-NH2 as printed: N-terminal acetyl, C-terminal amide, ReN at 4 stapled to S6 at 11
notes: Stapled peptide composition
B12: I-29 (peptide)
peptide: FDAXDDAAFVXFWQ
modifications: not fully specified; Ac-Phe-Asp-Ala-ReN-Asp-Asp-Ala-Ala-Phe-Val-S6-Phe-Trp-Gln-NH2 as printed: N-terminal acetyl, C-terminal amide, ReN at 4 stapled to S6 at 11
notes: Stapled peptide composition
B13: I-31 (peptide)
peptide: Ac-FDA[R7]DDAAFV[PyrS]FWQ-NH2
modifications: staple 4-11; not fully specified; printed as Ac-Phe-Asp-Ala-R7-Asp-Asp-Ala-Ala-Phe-Val-PyrS-Phe-Trp-Gln-NH2
notes: Stapled peptide composition
B14: I-32 (peptide)
peptide: FDAXDDAAFVXFWQ
modifications: not fully specified; Ac-Phe-Asp-Ala-Az-Asp-Asp-Ala-Ala-Phe-Val-S7-Phe-Trp-Gln-NH2 as printed: N-terminal acetyl, C-terminal amide, Az at 4 stapled to S7 at 11
notes: Stapled peptide composition
B15: I-39 (peptide)
peptide: Ac-FDA[R8]DDAAFV[Az(3)]FWQ-NH2
modifications: staple 4-11; not fully specified; printed as Ac-Phe-Asp-Ala-R8-Asp-Asp-Ala-Ala-Phe-Val-Az-Phe-Trp-Gln-NH2
notes: Stapled peptide composition

These binders were tested against T1, full-length beta-Catenin (Uniprot ID P35222) (Homo sapiens (Human), UniProt P35222 2-781) (assay: AlphaScreen competition vs biotin-TCF4(10-53) on full-length beta-catenin).
T1 construct: The assay text says 'full-length'; also called B-Catenin; bCat
T1 sequence: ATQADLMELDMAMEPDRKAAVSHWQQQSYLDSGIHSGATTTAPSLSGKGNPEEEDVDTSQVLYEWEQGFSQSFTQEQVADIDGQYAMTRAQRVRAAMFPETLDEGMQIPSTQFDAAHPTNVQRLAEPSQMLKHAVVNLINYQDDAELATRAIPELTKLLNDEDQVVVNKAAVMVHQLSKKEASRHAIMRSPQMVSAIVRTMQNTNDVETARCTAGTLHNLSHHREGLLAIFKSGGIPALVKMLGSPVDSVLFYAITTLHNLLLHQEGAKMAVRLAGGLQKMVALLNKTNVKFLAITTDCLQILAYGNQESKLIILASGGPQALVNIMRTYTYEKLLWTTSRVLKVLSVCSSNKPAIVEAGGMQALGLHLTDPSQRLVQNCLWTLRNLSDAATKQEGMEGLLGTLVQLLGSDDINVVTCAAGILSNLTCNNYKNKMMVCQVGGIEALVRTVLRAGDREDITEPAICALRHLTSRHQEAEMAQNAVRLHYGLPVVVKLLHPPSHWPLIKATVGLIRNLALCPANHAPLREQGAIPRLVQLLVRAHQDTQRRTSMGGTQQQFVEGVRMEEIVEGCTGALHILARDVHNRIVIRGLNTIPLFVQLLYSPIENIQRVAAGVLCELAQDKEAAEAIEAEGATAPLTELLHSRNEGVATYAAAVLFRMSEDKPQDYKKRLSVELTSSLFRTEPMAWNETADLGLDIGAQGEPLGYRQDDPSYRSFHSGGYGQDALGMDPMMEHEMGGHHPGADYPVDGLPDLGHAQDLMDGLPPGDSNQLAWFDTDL
Experimental: Equal volume of the titrated peptide was added to the plate and incubated for 15 minutes at 20° C. Then 4 uL of donor and 4 uL acceptor beads at 10 ug/mL were added to the plate, for a 16 uL reaction pool and protected from light for 60 minutes at 20° C. prior to read. Reads were performed on a CLARIOstar plate reader (BMG Labtech) in duplicate, and data were fitted to a 1:1 binding model with hill slope using an in-house script. All provided concentrations are final concentrations.
Binder Ac-FDA[R8]DEAAFV[PyrS″]FWQ-NH2 (staple 4-11, Stapled peptide composition) [I-3] has an EC50 of 9.13 µM.
With B1 the EC50 was 5.89 µM.
For B2, the EC50 was ≥ 10 µM.
In the case of B3, the EC50 is reported as ≥ 10 µM.
B4 was tested, and the EC50 was ≥ 10 µM.
In the case of Ac-FDA[R8]DDAEFV[PyrS]FWQ-NH2 (staple 4-11; also: later-eluting HPLC isomer peak, Stapled peptide composition) [I-22], the EC50 is reported as ≥ 10 µM.
For Ac-FDA[RdN]DDAAFV[S7]FWQ-NH2 (staple 4-11; also: later-eluting isomer of same sequence as I-1, Stapled peptide composition) [I-2], the EC50 was ≥ 10 µM.
In the case of Ac-FDA[R8]D[Aad]AAFV[PyrS(3)]FWQ-NH2 (staple 4-11; also: earlier-eluting HPLC isomer, E/Z not given here, Stapled peptide composition) [I-5], the EC50 is reported as ≥ 10 µM.
In the case of Ac-FDA[R8]D[Aad]AAFV[PyrS]FWQ-NH2 (staple 4-11, Stapled peptide composition) [I-6], the EC50 is reported as 6.5 µM.
For Ac-FDA[R8]D[Phe(4-COOH)]AAFV[PyrS″]FWQ-NH2 (staple 4-11, Stapled peptide composition) [I-7], the EC50 was ≥ 10 µM.
For Ac-FDA[R8]D[Phe(4-COOH)]AAFV[PyrS″]FWQ-NH2 (staple 4-11, Stapled peptide composition) [I-8], the EC50 was ≥ 10 µM.
Ac-FDA[R8]D[3Pal]AAFV[PyrS″]FWQ-NH2 (staple 4-11, Stapled peptide composition) [I-9] was tested, and the EC50 was ≥ 10 µM.
For Ac-FDA[R8]D[3Pal]AAFV[PyrS″]FWQ-NH2 (staple 4-11, Stapled peptide composition) [I-10], the EC50 was ≥ 10 µM.
In the case of B5, the EC50 is reported as ≥ 10 µM.
Ac-FDA[R8]D[Bip]AAFV[PyrS(3)]FWQ-NH2 (staple 4-11, Stapled peptide composition) [I-12] was tested, and the EC50 was ≥ 10 µM.
In the case of Ac-FDA[R8]D[Nle]AAFV[PyrS]FWQ-NH2 (staple 4-11, Stapled peptide composition) [I-13], the EC50 is reported as ≥ 10 µM.
With B6 the EC50 was 9.76 µM.
In the case of B7, the EC50 is reported as ≥ 10 µM.
For B8, the EC50 was ≥ 10 µM.
For Ac-FDA[R8]D[hLeu]AAFV[PyrS]FWQ-NH2 (staple 4-11, Stapled peptide composition) [I-17], the EC50 was ≥ 10 µM.
B9 was tested, and the EC50 was ≥ 10 µM.
Work on Ac-FDA[R8]DDA[Aad]FV[PyrS″]FWQ-NH2 (staple 4-11; also: earlier-eluting HPLC peak, Stapled peptide composition) [I-23] yielded an EC50 of 9.22 µM.
For B10, the EC50 was 8.57 µM.
Binder Ac-FDA[R5]DDAAFV[SeN]FWQ-NH2 (staple 4-11, Stapled peptide composition) [I-25] has an EC50 of 7.22 µM.
Ac-FDA[R6]DDAAFV[SeN]FWQ-NH2 (staple 4-11, Stapled peptide composition) [I-26] gave an EC50 of 8.11 µM.
In the case of Ac-FDA[ReN]DDAAFV[S5]FWQ-NH2 (staple 4-11, Stapled peptide composition) [I-27], the EC50 is reported as 6.82 µM.
B11 gave an EC50 of 8.46 µM.
In the case of B12, the EC50 is reported as ≥ 10 µM.
Binder Ac-FDA[R7″]DDAAFV[PyrS″]FWQ-NH2 (staple 4-11, Stapled peptide composition) [I-30] has an EC50 of 8.82 µM.
Work on B13 yielded an EC50 of 7.22 µM.
With B14 the EC50 was 7.35 µM.
Work on Ac-FDA[Az(3)]DDAAFV[S7]FWQ-NH2 (staple 4-11, Stapled peptide composition) [I-33] yielded an EC50 of 9.98 µM.
With Ac-FDA[R8]DDAAFV[SgN]FWQ-NH2 (staple 4-11, Stapled peptide composition) [I-34] the EC50 was ≥ 10 µM.
Ac-FDA[Az″]DDAAFV[S8]FWQ-NH2 (staple 4-11, Stapled peptide composition) [I-35] gave an EC50 of 9.54 µM.
For Ac-FDA[R4]DDAAFV[SeN]FWQ-NH2 (staple 4-11, Stapled peptide composition) [I-36], the EC50 was 8.27 µM.
Ac-FDA[R5]DDAAFV[SdN]FWQ-NH2 (staple 4-11, Stapled peptide composition) [I-37] was tested, and the EC50 was ≥ 10 µM.
Ac-FDA[R7]DDAAFV[Az(3)]FWQ-NH2 (staple 4-11, Stapled peptide composition) [I-38] was tested, and the EC50 was ≥ 10 µM.
With B15 the EC50 was ≥ 10 µM.
